Laboratory results: patent US20230052646A1 (JJP BIOLOGICS SP Z O O, published 2023)

T1: membrane-bound full-length human HVEM on stable HVEM-transfected HEK293F cells (clone no. 128) (human, UniProt Q92956 39-283)
T1 construct: The same cDNA was also expressed on Sf9 insect cells; also called TNFRSF14; CD270
T1 sequence: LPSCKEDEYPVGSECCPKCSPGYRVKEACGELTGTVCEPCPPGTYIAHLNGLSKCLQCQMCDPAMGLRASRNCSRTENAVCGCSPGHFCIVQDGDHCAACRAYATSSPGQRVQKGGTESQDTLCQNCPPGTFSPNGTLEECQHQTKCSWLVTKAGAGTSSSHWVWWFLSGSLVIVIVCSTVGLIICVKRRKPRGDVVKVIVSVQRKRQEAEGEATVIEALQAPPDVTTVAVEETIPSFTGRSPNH

T2: membrane-bound 'CRD1 truncated' human HVEM on transiently transfected HEK293F cells (human, UniProt Q92956 76-283)
T2 construct: aa 1-19 are a mouse Ig signal peptide and are left out; Starts with CRD2; also called human HVEM deleted for CRD1; CRD1 truncated HVEM
T2 sequence: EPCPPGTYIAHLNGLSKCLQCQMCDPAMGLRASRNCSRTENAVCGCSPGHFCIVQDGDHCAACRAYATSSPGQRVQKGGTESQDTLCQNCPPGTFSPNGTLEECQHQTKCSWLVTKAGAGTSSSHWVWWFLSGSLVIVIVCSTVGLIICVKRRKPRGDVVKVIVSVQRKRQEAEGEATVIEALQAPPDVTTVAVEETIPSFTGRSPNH


Key:
[1] = target: T1, membrane-bound full-length human HVEM …; test: FACS titration on HVEM-HEK293F, half-maximum binding
Protocol: In order to determine the relative binding affinity of purified BTLA/HVEM blocking chimeric mouse/human anti-human HVEM antibodies no. 36H12, 45H6, 48H6, 11H7, and 49G4 for human HVEM, FACS analysis was used.
To this end, stable human full-length HVEM-transfected HEK293F cells (clone no. 128; see Example 1(a) above) were put at 10×10⁶ cells/mL in ice-chilled PBS containing 0.1% BSA (Sigma)/0.05% NaN₃ (PBS/BSA/NaN₃) supplemented with 50 μg/mL human IgGs (blocking possible Fcγ receptors; Sigma) for 10 minutes at 4° C. Then, 10 μL/tube (i.e., 0.1×10⁶ cells) of these cells were incubated with or without 100 μL titrated (in PBS/BSA/NaN₃) purified BTLA/HVEM blocking chimeric mouse/human anti-human HVEM antibody/tube for 30 minutes at 4° C. After extensive washing in PBS/BSA/NaN₃, cells were subsequently incubated with 1:200 diluted PE-conjugated goat anti-human IgG Fcγ-specific antibodies (Jackson ImmunoResearch) for 30 minutes at 4° C. After extensive washing in PBS/BSA/NaN₃, cells were fixed in 4% formaldehyde in PBS/BSA/NaN₃ for 30 minutes at 4° C. Binding (geo-mean fluorescence intensity) of chimeric mouse/human anti-human HVEM antibodies no. 36H12, 45H6, 48H6, 11H7, and 49G4 on membrane human HVEM was measured using a flow cytometer (FACSCalibur; BD Biosciences). For comparison, purified BTLA/HVEM blocking mouse anti-human HVEM antibody counterparts no. 36H12, 45H6, 48H6, 11H7, and 49G4 were run in parallel, and their binding was monitored as described in Example 2 (a).

[2] = target: T2, membrane-bound 'CRD1 truncated' human …; test: FACS, undiluted hybridoma supernatant, CRD1 truncated HVEM on HEK293F
Protocol: Generation of human ‘full-length’ HVEM-transfected HEK293F cells (clone no. 128) is described in Example 1a. […] After 72 hours, surface human HVEM expression on transfected cells was analysed by FACS analysis. To this end, stable human full-length HVEM-transfected HEK293F cells and transient human ‘CRD1 truncated’ HVEM-transfected HEK293F cells were put at 10×10⁶ cells/mL in ice-chilled phosphate-buffered saline containing 0.1% BSA (Sigma)/0.05% NaN₃ (PBS/BSA/NaN₃) supplemented with 50 μg/mL human IgGs (blocking of possible Fcγ receptors; Sigma) for 10 minutes at 4° C. Then, 10 μL/tube (i.e., 0.1×10⁶ cells) of these cells were incubated with 100 μL undiluted hybridoma supernatant/tube for 30 minutes at 4° C. Phycoerythrin (PE)-conjugated mouse anti-human HVEM antibody (clone eBioHVEM-122; eBioscience) at 1:20 was run as a positive control antibody. After extensive washing in PBS/BSA/NaN₃, cells were subsequently incubated with 1:200 diluted PE-conjugated goat anti-mouse IgG Fcγ-specific antibodies (Jackson ImmunoResearch) for 30 minutes at 4° C. After extensive washing in PBS/BSA/NaN₃, cells were fixed in 2% formaldehyde in PBS/BSA/NaN₃ for 30 minutes at 4° C. Binding of antibodies was measured using a flow cytometer (model FACSCalibur; BD Biosciences).

[3] = target: T1, membrane-bound full-length human HVEM …; test: FACS, Ab 10 µg/mL then biotinylated BTLA on HVEM-HEK293F
Protocol: (§1) Generation of human ‘full-length’ HVEM-transfected HEK293F cells (clone no. 128) is described in Example 1a. Binding of soluble human BTLA, of soluble human CD160, of soluble human LIGHT, and of soluble human TNFβ on surface human HVEM-transfected cells was analysed by FACS analysis. To this end, stable human full-length HVEM-transfected HEK293F cells were put at 10×10⁶ cells/mL in ice-chilled phosphate-buffered saline containing 0.1% BSA (Sigma)/0.05% NaN₃ (PBS/BSA/NaN₃) supplemented with 50 μg/mL human IgGs (blocking possible Fcγ receptors; Sigma) for 10 minutes at 4° C. Then, 10 μL/tube (i.e., 0.1×10⁶ cells) of these cells were incubated with or without 100 μL purified chimeric mouse/human anti-HVEM antibody at 10 μg/mL/tube or a human IgG4/κ (Sigma) negative isotype control at 10 μg/mL/tube for 30 minutes at 4° C. After this (i.e., without washing), cells were subsequently incubated with 1 μg/mL soluble biotinylated human BTLA (Sino Biological Inc), with 10 μg/mL soluble his-tagged human CD160 (Sino Biological Inc), with 1 μg/mL soluble his-tagged human LIGHT (Sino Biological Inc), or with 0.1 μg/mL soluble biotinylated human TNFβ (Sino Biological Inc) in PBS/BSA/NaN₃ for 30 minutes at 4° C. After extensive washing in PBS/BSA/NaN₃, cells were incubated with 1:200 diluted PE-conjugated streptavidin (detection BTLA and TNFβ; Jackson ImmunoResearch) or with biotinylated mouse anti-his antibody (detection CD160 and LIGHT; R&D Systems) at 10 μg/mL for 30 minutes at 4° C. After extensive washing in PBS/BSA/NaN₃, cells were incubated with 1:200 diluted PE-conjugated streptavidin (detection CD160 and LIGHT; Jackson ImmunoResearch) for 30 minutes at 4° C. After extensive washing in PBS/BSA/NaN₃, cells were fixed in 4% formaldehyde in PBS/BSA/NaN₃ for 30 minutes at 4° C. Binding of ligands BTLA, CD160, LIGHT and TNFβ on membrane human HVEM was measured using a flow cytometer (model FACSCalibur; BD Biosciences). For comparison, purified BTLA/HVEM blocking mouse anti-human HVEM antibody counterparts no. 36H12, 45H6, 48H6, 11H7, and 49G4 at 10 μg/mL/tube and a mouse IgG1 (BD Biosciences) negative isotype control at 10 μg/mL/tube were run in parallel.

[4] = target: T1, membrane-bound full-length human HVEM …; test: FACS, Ab 10 µg/mL then biotinylated TNFβ on HVEM-HEK293F
Protocol: as §1

[5] = target: T1, membrane-bound full-length human HVEM …; test: FACS, biotinylated TNFβ pre-bound, then Ab 20 µg/mL
Protocol: (§2) Generation of human ‘full-length’ HVEM-transfected HEK293F cells (clone no. 128) is described in Example 1a. Displacement of pre-bound soluble human BTLA, soluble human CD160, soluble human LIGHT, and soluble human TNFβ from surface human HVEM-transfected cells was analysed by FACS analysis. To this end, stable human full-length HVEM-transfected HEK293F cells were put at 10×10⁶ cells/mL in ice-chilled phosphate-buffered saline containing 0.1% BSA (Sigma)/0.05% NaN₃ (PBS/BSA/NaN₃) supplemented with 50 μg/mL human IgGs (blocking possible Fcγ receptors; Sigma) for 10 minutes at 4° C. Then, 10 μL/tube (i.e., 0.1×10⁶ cells) of these cells were incubated without or with 50 μL soluble biotinylated human BTLA-human Fcγ fusion protein (Sino Biological Inc) at 2 μg/mL/tube, with soluble his-tagged human CD160 (Sino Biological Inc) at 20 μg/mL/tube, with soluble his-tagged human LIGHT (Sino Biological Inc) at 2 μg/mL/tube, or with soluble biotinylated human TNFβ (Sino Biological Inc) at 0.2 μg/mL/tube in PBS/BSA/NaN₃ for 30 minutes at 4° C. After this (i.e., without washing), cells were subsequently incubated with 50 μL purified chimeric mouse/human anti-HVEM antibody at 20 μg/mL/tube or a human IgG4/κ (Sigma) negative isotype control at 20 μg/mL/tube for 30 minutes at 4° C. […] After extensive washing in PBS/BSA/NaN₃, cells were incubated with 1:200 diluted PE-conjugated streptavidin (detection CD160 and LIGHT; Jackson ImmunoResearch) for 30 minutes at 4° C. After extensive washing in PBS/BSA/NaN₃, cells were fixed in 4% formaldehyde in PBS/BSA/NaN₃ for 30 minutes at 4° C. Residual binding of ligands BTLA, CD160, LIGHT and TNFβ on membrane human HVEM was measured using a flow cytometer (model FACSCalibur; BD Biosciences).

[6] = target: T1, membrane-bound full-length human HVEM …; test: FACS, biotinylated BTLA-Fc pre-bound, then Ab 20 µg/mL
Protocol: as §2

Binder | EC50 [1] [µg/mL] | binding result [2] | % blocking of ligand binding [3] [%] | % blocking of ligand binding [4] [%] | % displacement of pre-bound ligand [5] [%] | % displacement of pre-bound ligand [6] [%]
chimeric mouse/human IgG4/kappa anti-human HVEM antibody no. 11H7 (antibody, V domains shown, 40/41 within the entry; Stabilized human IgG4 (S239P) already in the entry; also called chimeric 11H7) VH: QVQLKQSGPGLVQPSQSLSITCTVSGFSLTIYGVHWVRQSPGKGLEWLGVIWSGGSTDYNAAFISRLSISKDNSKSQVFFKMNSLQANDTAIYYCARRDYGSRSFYYAMDYWGQGTSVTVSS VL: EIVLTQSPALMAASPGEKVTITCSVSSSISSSNLHWYQQKSETSPKPWIYGTSNLASGVPVRFSGSGSGTSYSLTISSMEAEDAATYYCQQWSSYPLTFGGGTKLEIKR | 0.63 | – | > 95 | > 55 | < 20 | > 95
mouse anti-human HVEM antibody no. 11H7 (antibody, mouse IgG1, V domains shown, mouse IgG1/kappa; also called 11H7 (mouse)) VH: QVQLKQSGPGLVQPSQSLSITCTVSGFSLTIYGVHWVRQSPGKGLEWLGVIWSGGSTDYNAAFISRLSISKDNSKSQVFFKMNSLQANDTAIYYCARRDYGSRSFYYAMDYWGQGTSVTVSS VL: EIVLTQSPALMAASPGEKVTITCSVSSSISSSNLHWYQQKSETSPKPWIYGTSNLASGVPVRFSGSGSGTSYSLTISSMEAEDAATYYCQQWSSYPLTFGGGTKLEIK | 0.532 | no binding | > 95 | > 60 | – | –

The next lines start with the values.

EC50 [1] [µg/mL] | binding result [2] | % blocking of ligand binding [3] [%] | % blocking of ligand binding [4] [%] | % displacement of pre-bound ligand [5] [%] | % displacement of pre-bound ligand [6] [%] | Binder
0.266 | no binding | > 95 | > 85 | – | – | mouse anti-human HVEM antibody no. 49G4 (antibody, mouse IgG1, V domains shown, mouse IgG1/kappa; also called 49G4 (mouse)) VH: EVQLQQSGAELVKPGASVKLSCRASGFNIKDTYMHWVKQRPEQGLEWIGRIDPARGNTKYDPKFQGKATITADTSSNTAYLQLSSLTSEDTAVYYCASAMDYWGQGTSVTVSS VL: DVLMTQTPLSLPVSLGDQASISCRSSQSIVHSNGNTYLEWFLQKPGQSPKLLIYKVSNRFSGVPDRFSGSGSGTDFTLKISRVEAEDLGVYYCFQGSHVPLTFGAGTKLELK
0.26 | no binding | > 95 | – | – | – | mouse anti-human HVEM antibody no. 45H6 (antibody, mouse IgG1, V domains shown, mouse IgG1/kappa; also called 45H6 (mouse)) VH: DVQLVESGGGLVQPGGSRKLSCAASGFTFSSFGMHWVRQAPEKGLEWVAYISSGNSNIYYVDTVKGRFTISRDNPKNTLFLQMTSLRSEDTAMYYCARKRAYGDYSGFSMDYWGQGTSVTVSS VL: DIVMTQSQKFMSTSVGDRVSVTCKASQNVDTNVAWYQQKPGQSPKALIYSASYRYSGVPDRFTGSGSGTDFTLTISNVQSEDLAEYFCQQYNKFPLTFGGGTKLEIK
